Measurements as given in patent publication US20210380703A1 (RIGEL PHARMACEUTICALS, published 2021).

Legend:
[1] = target: T1, biotinylated goat anti-human kappa light chain; assay: ELISA, positive control
T1 construct: Positive control of the ELISA
Summary of the method: (§1)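 Binding signal was read by ELISA after ACVR2A-specific monoclonal antibodies were tested against human ACVR2A and mouse ACVR2A, with human Fc as the negative control.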

human ACVR2A = target: T2, human ACVR2A (human, UniProt P27037 20-135, limits assumed); assay: ELISA
T2 construct: also called activin receptor, type II A
T2 sequence (P27037 20-135 limits assumed): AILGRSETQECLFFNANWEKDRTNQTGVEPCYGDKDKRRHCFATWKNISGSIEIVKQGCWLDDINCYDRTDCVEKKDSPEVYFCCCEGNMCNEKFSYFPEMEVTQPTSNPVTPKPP
Summary of the method: as §1

mouse ACVR2A = mouse ACVR2A (mouse, UniProt P27038 20-135, limits assumed); assay: ELISA
Sequence of mouse ACVR2A (P27038 20-135 limits assumed): as the sequence (P27037 20-135 limits assumed) above, with K20R, V73I counted along it
Summary of the method: as §1
Also: test concentration or dose not given here.

| optical density [1] [OD] | optical density (human ACVR2A) [OD] | optical density (mouse ACVR2A) [OD] | Binder |
| --- | --- | --- | --- |
| 3.62 | 2.47 | 2.3 | 371_F12 (antibody, V domains shown, VH and VL only) VH: EVQLLESGGGLVQPGGSLRLSCAASGFTFDSYSMNWVRQAPGKGLEWVSNINYNGGYKSYADSVKGRFTISRDNSKNTLYLQMNSLRAEDTAVYYCARSATWHDTHLDYWGQGTLVTVSS VL: DIQMTQSPSSLSASVGDRVTITCRASQSIISYLNWYQQKPGKAPKLLIYAATSRASGVPSRFSGSGSGTDFTLTISSLQPEDFATYYCQQSNNLPLTFGGGTKVEIK |
| 3.64 | 2.32 | 2.7 | 372_H03 (antibody, V domains shown, VH and VL only) VH: EVQLLESGGGLVQPGGSLRLSCAASGFTFDSYGMNWVRQAPGKGLEWVSNINYNGGYKSYADSVKGRFTISRDNSKNTLYLQMNSLRAEDTAVYYCARSATWHDTHLDYWGQGTLVTVSS VL: DIQMTQSPSSLSASVGDRVTITCRASQSIITYVNWYQQKPGKAPKLLIYAATSLASGVPSRFSGSGSGTDFTLTISSLQPEDFATYYCQQSYNLPLTFGGGTKVEIK |
| 3.44 | 3.31 | 3.36 | 371_B10 (antibody, V domains shown, VH and VL only) VH: EVQLLESGGGLVQPGGSLRLSCAASGFTFDSYSMNWVRQAPGKGLEWVSNINYNGGYTGYADSVKGRFTISRDNSKNTLYLQMNSLRAEDTAVYYCARSATWHDTHLDYWGQGTLVTVSS VL: DIQMTQSPSSLSASVGDRVTITCRASQSIVSYVNWYQQKPGKAPKLLIYAATSRASGVPSRFSGSGSGTDFTLTISSLQPEDFATYYCQQSYDLPLTFGGGTKVEIK |

Second part, the binder before the results:

| Binder | optical density [1] [OD] | optical density (human ACVR2A) [OD] | optical density (mouse ACVR2A) [OD] |
| --- | --- | --- | --- |
| 370_A08 (antibody, V domains shown, VH and VL only) VH: EVQLLESGGGLVQPGGSLRLSCAASGFTFDSYSMNWVRQAPGKGLEWVSSINYNSGYTGYADSVKGRFTISRDNSKNTLYLQMNSLRAEDTAVYYCARSATWHDTHLDYWGQGTLVTVSS VL: DIQMTQSPSSLSASVGDRVTITCRASQSIVTYLNWYQQKPGKAPKLVIYAATSRASGVPSRFSGSGSGTDFTLTISSLQPEDFATYYCQQSYDLPLTFGGGTKVEIK | 3.52 | 2.41 | 2.33 |
| 370_A10 (antibody, V domains shown, VH and VL only) VH: EVQLLESGGGLVQPGGSLRLSCAASGFTFSDYSMNWVRQAPGKGLEWVSSINYNSGYKGYADSVKGRFTISRDNSKNTLYLQMNSLRAEDTAVYYCARSATWHDTHLDYWGQGTLVTVSS VL: DIQMTQSPSSLSASVGDRVTITCRASQSILSYVNWYQQKPGKAPKLLIYAATSLASGVPSRFSGSGSGTDFTLTISSLQPEDFATYYCQQSYDTPLTFGGGTKVEIK | 3.47 | 2.58 | 2.88 |
| 370_D07 (antibody, V domains shown, VH and VL only) VH: EVQLLESGGGLVQPGGSLRLSCAASGFTFSSYGMNWVRQAPGKGLEWVSNINYNSGYTGYADSVKGRFTISRDNSKNTLYLQMNSLRAEDTAVYYCARSATWHDTHLDYWGQGTLVTVSS VL: DIQMTQSPSSLSASVGDRVTITCRASQSILSYVNWYQQKPGKAPKLVIYAATSLASGVPSRFSGSGSGTDFTLTISSLQPEDFATYYCQQSYESPLTFGGGTKVEIK | 3.38 | 2.81 | 3.14 |
| 371_B05 (antibody, V domains shown, VH and VL only) VH: EVQLLESGGGLVQPGGSLRLSCAASGFTFSSYSMNWVRQAPGKGLEWVSGINYNSGYTSYADSVKGRFTISRDNSKNTLYLQMNSLRAEDTAVYYCARSATWHDTHLDYWGQGTLVTVSS VL: DIQMTQSPSSLSASVGDRVTITCRASQSILTYLNWYQQKPGKAPKLVIYAATSLASGVPSRFSGSGSGTDFTLTISSLQPEDFATYYCQQSDETPLTFGGGTKVEIK | 1.65 | 1.05 | 1.24 |
